Experiments:
[1] = target: human CD40 on primary human tonsillar B cells (human, UniProt P25942 21-277); assay: cell-based or functional assay
[2] = target: T1, soluble human CD40 extracellular domain (human, UniProt P25942 21-193); assay: SPR, purified Ab on protein A, 6 concentrations of hCD40 ECD, mean of 3; purified antibody, mean of three measurements
T1 construct: Produced in house; also called hCD40; soluble hCD40 extracellular domain
Procedure: (§1) Additionally, to more accurately define the dissociation rate (kd), a longer dissociation time of 360 seconds (s) was used as opposed to the shorter 180 s dissociation that had been used in the supernatant screening experiment.
(§2) CD40 binding SPR: SPR studies of the purified antibodies were conducted on BIAcore™ T200 instrument (GE Healthcare, Chicago Ill.). A Series S Protein A sensor chip (GE Healthcare, Chicago Ill.) was equilibrated with SPR running buffer of 10 mM NaPO₄, 130 mM NaCl, 0.05% tween 20, (PBS-T) pH 7.2 at 25° C. The purified antibody samples were diluted to 3 μg/ml in PBS-T and captured on the protein A surface for 30 s at 10 μl/min Binding of 3.91, 7.81, 15.6, 31.3, 62.5, and 125 nM human CD40 extracellular domain (produced in house) was evaluated using association time of 180 s at 30 μl/min, followed by a dissociation time of 360 s at 30 μl/min Regeneration between cycles was accomplished using two 15 s injections of 10 mM glycine pH 1.5. […] Data were analyzed using BIAcore™ T200 evaluation software by fitting to a 1:1 Langmuir model.

[3] = target: T1, soluble human CD40 extracellular domain; assay: SPR, purified Ab on protein A, 6 concentrations of hCD40 ECD, mean of 3
Procedure: as §1, §2

[4] = target: T1, soluble human CD40 extracellular domain; assay: SPR, purified Ab on protein A chip, soluble hCD40 ECD analyte, Fc3-1, n=3 global fit
[5] = target: T1, soluble human CD40 extracellular domain; assay: SPR, purified Ab on protein A chip, soluble hCD40 ECD analyte, Fc4-1, n=3 global fit
Procedure: as §2, with “A” for “CD40 binding SPR: SPR studies of the purified antibodies were conducted on BIAcore™ T200 instrument (GE Healthcare, Chicago Ill.). A”, “[…] After priming the system, the 3 μg/ml” for “The purified”, “were” for “were diluted to 3 μg/ml in PBS-T and”, “50 nM” for “3.91, 7.81, 15.6, 31.3, 62.5,”, “500” for “125”, “180” for “360”

[6] = target: T1, soluble human CD40 extracellular domain; assay: SPR, Ab captured from supernatant on protein A, hCD40 ECD analyte; antibody captured out of supernatant
Procedure: The titer data (Table 21) were used to normalize the antibody concentration in each supernatant to 3 μg/ml, and these antibodies were captured out of the supernatants on a protein A CMS Series S sensor chip (GE Healthcare), and tested for binding to two concentrations (5 nM and 50 nM) of soluble hCD40 extracellular domain.
(§3) CD40 binding SPR of antibody supernatants: Surface plasmon resonance (SPR) studies were conducted on a BIAcore™ T200 instrument (GE Healthcare, Chicago Ill.). A Series S Protein A sensor chip (GE Healthcare, Chicago Ill.) was equilibrated with SPR running buffer of 10 mM NaPO₄, 130 mM NaCl, 0.05% tween 20, (PBS-T) pH 7.2 at 25° C. The 96 antibody supernatants were normalized to a concentration of 3 μg/ml by diluting with PBS-T using a PerkinElmer JANUS® G3 system (PerkinElmer, Akron, Ohio). After priming the system, the 3 μg/ml antibody samples were captured on the protein A surface for 30 s at 10 μl/min Binding of 50 nM and 500 nM human CD40 extracellular domain (produced in house) was evaluated using association time of 180 s at 30 μl/min, followed by a dissociation time of 180 s at 30 μl/min Regeneration between cycles was accomplished using two 15 s injections of 10 mM glycine pH 1.5. […] Data were analyzed using BIAcore™ T200 evaluation software by fitting to a 1:1 Langmuir model.

[7] = target: T1, soluble human CD40 extracellular domain; assay: SPR, purified Ab on protein A chip, soluble hCD40 ECD analyte, Fc2-1, n=3 global fit
Procedure: as §3, with “A” for “CD40 binding SPR of antibody supernatants: Surface plasmon resonance (SPR) studies were conducted on a BIAcore™ T200 instrument (GE Healthcare, Chicago Ill.). A”, “The 96 antibody supernatants were normalized to a concentration of 3 μg/ml by diluting with PBS-T using a PerkinElmer JANUS® G3 system (PerkinElmer, Akron, Ohio).” left out

human CD40 on primary human tonsillar B cells, sequence (P25942 21-277 limits assumed): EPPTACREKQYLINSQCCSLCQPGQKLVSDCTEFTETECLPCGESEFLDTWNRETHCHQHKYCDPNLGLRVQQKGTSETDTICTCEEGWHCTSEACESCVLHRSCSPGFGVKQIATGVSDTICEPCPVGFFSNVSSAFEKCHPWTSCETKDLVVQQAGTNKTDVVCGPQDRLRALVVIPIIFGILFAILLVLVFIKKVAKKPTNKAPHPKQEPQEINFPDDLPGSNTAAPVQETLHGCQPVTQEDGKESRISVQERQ
T1 sequence (P25942 21-193 limits assumed): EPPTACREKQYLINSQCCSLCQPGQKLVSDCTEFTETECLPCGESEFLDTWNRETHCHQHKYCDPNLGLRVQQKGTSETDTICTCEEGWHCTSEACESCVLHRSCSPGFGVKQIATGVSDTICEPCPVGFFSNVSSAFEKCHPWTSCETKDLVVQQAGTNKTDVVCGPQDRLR

- IC50, inhibition of tonsillar human B cell proliferation stimulated by IZ-hCD40L trimer (BMS-986325-WT P1-071223-1 lot 1) [1]: 0.0012 µg/mL
- IC50, inhibition of tonsillar human B cell proliferation stimulated by IZ-hCD40L trimer (BMS-986325-WT P1-071223-3 lot 3) [1]: 0.0056 µg/mL
- IC50, inhibition of tonsillar human B cell proliferation stimulated by IZ-hCD40L trimer (BMS-986325 P1-073346-1) [1]: 0.0014 µg/mL
- IC50, inhibition of tonsillar human B cell proliferation stimulated by hCD40L expressing CHO cells (BMS-986325-WT P1-071223-1 lot 1) [1]: 0.042 µg/mL
- IC50, inhibition of tonsillar human B cell proliferation stimulated by hCD40L expressing CHO cells (BMS-986325-WT P1-071223-3 lot 3) [1]: 0.0314 µg/mL
- IC50, inhibition of tonsillar human B cell proliferation stimulated by hCD40L expressing CHO cells (BMS-986325 P1-073346-1) [1]: 0.047 µg/mL
- kon [2]: 220000 M⁻¹ s⁻¹
- Kd [3]: 3.1 nM
- koff [3]: 0.00066 s⁻¹
- Kd [4]: 4.5 nM
- koff [4]: 0.00091 s⁻¹
- kon [4]: 200000 M⁻¹ s⁻¹
- Kd [5]: 4.4 nM
- koff [5]: 0.00091 s⁻¹
- kon [5]: 210000 M⁻¹ s⁻¹
- Kd [6]: 4.2 nM
- Kd [7]: 4.4 nM
- koff [7]: 0.00087 s⁻¹
- kon [7]: 200000 M⁻¹ s⁻¹
B1: BMS-986325 (antibody, human IgG1, kappa)
heavy: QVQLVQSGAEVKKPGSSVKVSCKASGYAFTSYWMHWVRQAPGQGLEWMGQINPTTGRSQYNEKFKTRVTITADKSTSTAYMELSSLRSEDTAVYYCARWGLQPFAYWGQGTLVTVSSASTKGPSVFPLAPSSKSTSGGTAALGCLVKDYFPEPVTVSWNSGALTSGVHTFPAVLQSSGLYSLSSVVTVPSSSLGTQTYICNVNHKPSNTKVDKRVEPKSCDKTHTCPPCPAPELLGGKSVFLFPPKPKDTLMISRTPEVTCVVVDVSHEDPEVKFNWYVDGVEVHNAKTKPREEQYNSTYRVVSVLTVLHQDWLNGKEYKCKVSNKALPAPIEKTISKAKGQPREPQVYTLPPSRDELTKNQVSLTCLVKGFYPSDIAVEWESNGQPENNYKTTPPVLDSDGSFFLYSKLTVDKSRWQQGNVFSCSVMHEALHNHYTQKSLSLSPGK
light: DIQMTQSPSFLSASVGDRVTITCKASQDVSTAVAWYQQKPGKAPKLLIYSASYRYTGVPSRFSGSGSGTDFTLTISSLQPEDFATYYCQQHYSTPWTFGGGTKVEIKRTVAAPSVFIFPPSDEQLKSGTASVVCLLNNFYPREAKVQWKVDNALQSGNSQESVTEQDSKDSTYSLSSTLTLSKADYEKHKVYACEVTHQGLSSPVTKSFNRGEC
notes: IgG1-P238K; purified lots and supernatant M1 treated as one molecule; also called M1 (wt); Y12XX-hz28
